{
  "source": "patent US20090214535A1",
  "about": "(Chugai, published 2009)",
  "test_in_all_cases": "cell-based or functional assay",
  "key": {"[1]": {"biological_target": "monkey Mpl (on BaF3-monkey Mpl cells) (monkey)"}, "[2]": {"biological_target": "T1, human Mpl (on BaF3-human Mpl cells) (human, UniProt P40238 26-635)", "T1 sequence (looked up)": "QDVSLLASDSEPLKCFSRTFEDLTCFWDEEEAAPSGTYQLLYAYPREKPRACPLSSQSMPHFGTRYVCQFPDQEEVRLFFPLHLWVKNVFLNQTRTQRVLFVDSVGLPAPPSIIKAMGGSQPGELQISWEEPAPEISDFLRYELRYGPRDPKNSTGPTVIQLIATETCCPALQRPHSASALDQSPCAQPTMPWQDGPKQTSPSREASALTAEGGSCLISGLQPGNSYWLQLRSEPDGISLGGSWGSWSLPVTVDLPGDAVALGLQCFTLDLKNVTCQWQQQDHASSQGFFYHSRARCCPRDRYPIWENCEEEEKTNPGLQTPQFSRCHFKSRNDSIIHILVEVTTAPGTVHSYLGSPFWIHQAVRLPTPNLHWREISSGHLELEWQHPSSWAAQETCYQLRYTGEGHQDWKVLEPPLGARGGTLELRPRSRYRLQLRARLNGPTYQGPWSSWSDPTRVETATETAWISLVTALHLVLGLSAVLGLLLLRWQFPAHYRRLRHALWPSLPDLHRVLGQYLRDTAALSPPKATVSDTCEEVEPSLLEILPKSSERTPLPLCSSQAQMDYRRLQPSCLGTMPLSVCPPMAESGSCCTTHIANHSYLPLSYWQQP"}, "[3]": {"biological_target": "monkey Mpl (on BaF3-monkey Mpl cells) (monkey)", "remark": "listed apart in the source"}, "[4]": {"biological_target": "T1, human Mpl (on BaF3-human Mpl cells)", "remark": "listed apart in the source"}, "[5]": {"biological_target": "Mpl on the BaF3 cells of FIG. 42 (human or monkey not stated)"}, "[6]": {"biological_target": "monkey Mpl (on BaF3-monkey Mpl cells) (monkey)", "remark": "listed apart in the source"}, "[7]": {"biological_target": "T1, human Mpl (on BaF3-human Mpl cells)", "remark": "listed apart in the source"}},
  "note": "Where two headings read alike, the source gives them in different places.",
  "data": [
    {"binder": "humanized anti-human Mpl antibody hVB22B u2-wz4 sc(Fv)2 (bulk, before separation of the conformational isomers) (scFv) QVQLVQSGPEVKKPGASVKVSCKASGYTFTNSWMNWVRQRPGKGLEWIGRIYPGDGETIYNGKFRVRVTITADESTSTAYMQLSSLRSEDTAVYYCARGYDDYSFAYWGQGTTVTVSSGGGGSGGGGSGGGGSDIVMTQSPLSLPVTPGEPASISCRSSKSLLHSNGNTYLYWFLQKPGQSPQLLIYRMSNLASGVPDRFSGSGSGTDFTLKISRVEAEDVGVYYCMQHIEYPFTFGQGTKLEIKGGGGSGGGGSGGGGSQVQLVQSGPEVKKPGASVKVSCKASGYTFTNSWMNWVRQRPGKGLEWIGRIYPGDGETIYNGKFRVRVTITADESTSTAYMQLSSLRSEDTAVYYCARGYDDYSFAYWGQGTTVTVSSGGGGSGGGGSGGGGSDIVMTQSPLSLPVTPGEPASISCRSSKSLLHSNGNTYLYWFLQKPGQSPQLLIYRMSNLASGVPDRFSGSGSGTDFTLKISRVEAEDVGVYYCMQHIEYPFTFGQGTKLEIK", "values": [
      {"measurement": "EC50 (read off the curve) [B) BaF-monkey Mpl]", "setting": "[1]", "value": "~0.04", "unit": "nM"},
      {"measurement": "EC50 (read off the curve) [A) BaF-human Mpl]", "setting": "[2]", "value": "~0.04", "unit": "nM"},
      {"measurement": "EC50 (read off the curve) [B) BaF-monkey Mpl]", "setting": "[3]", "value": "~0.02", "unit": "nM"},
      {"measurement": "EC50 (read off the curve) [A) BaF-human Mpl]", "setting": "[4]", "value": "~0.06", "unit": "nM"}
    ]},
    {"binder": "hVB22B u2-wz4 sc(Fv)2 peak 2 (single chain diabody-type conformational isomer) (scFv) QVQLVQSGPEVKKPGASVKVSCKASGYTFTNSWMNWVRQRPGKGLEWIGRIYPGDGETIYNGKFRVRVTITADESTSTAYMQLSSLRSEDTAVYYCARGYDDYSFAYWGQGTTVTVSSGGGGSGGGGSGGGGSDIVMTQSPLSLPVTPGEPASISCRSSKSLLHSNGNTYLYWFLQKPGQSPQLLIYRMSNLASGVPDRFSGSGSGTDFTLKISRVEAEDVGVYYCMQHIEYPFTFGQGTKLEIKGGGGSGGGGSGGGGSQVQLVQSGPEVKKPGASVKVSCKASGYTFTNSWMNWVRQRPGKGLEWIGRIYPGDGETIYNGKFRVRVTITADESTSTAYMQLSSLRSEDTAVYYCARGYDDYSFAYWGQGTTVTVSSGGGGSGGGGSGGGGSDIVMTQSPLSLPVTPGEPASISCRSSKSLLHSNGNTYLYWFLQKPGQSPQLLIYRMSNLASGVPDRFSGSGSGTDFTLKISRVEAEDVGVYYCMQHIEYPFTFGQGTKLEIK", "values": [
      {"measurement": "EC50 (read off the curve) [B) BaF-monkey Mpl]", "setting": "[1]", "value": "~0.03", "unit": "nM"},
      {"measurement": "EC50 (read off the curve) [A) BaF-human Mpl]", "setting": "[2]", "value": "~0.04", "unit": "nM"},
      {"measurement": "EC50 (read off the curve) [B) BaF-monkey Mpl]", "setting": "[3]", "value": "~0.02", "unit": "nM"},
      {"measurement": "EC50 (read off the curve) [A) BaF-human Mpl]", "setting": "[4]", "value": "~0.05", "unit": "nM"}
    ]},
    {"binder": "hVB22B u2-wz4 (v3) sc(Fv)2 (scFv) QVQLVQSGPEVKKPGASVKVSCKASGYTFTNSWMNWVRERPGKGLEWIGRIYPGDGETIYNGKFRVRVTITADESTSTAYMQLSSLRSEDTAVYYCARGYDDYSFAYWGQGTTVTVSSGGGGSGGGGSGGGGSDIVMTQSPLSLPVTPGEPASISCRSSKSLLHSNGNTYLYWFLKKPGQSPQLLIYRMSNLASGVPDRFSGSGSGTDFTLKISRVEAEDVGVYYCMQHIEYPFTFGQGTKLEIKGGGGSGGGGSGGGGSQVQLVQSGPEVKKPGASVKVSCKASGYTFTNSWMNWVRKRPGKGLEWIGRIYPGDGETIYNGKFRVRVTITADESTSTAYMQLSSLRSEDTAVYYCARGYDDYSFAYWGQGTTVTVSSGGGGSGGGGSGGGGSDIVMTQSPLSLPVTPGEPASISCRSSKSLLHSNGNTYLYWFLEKPGQSPQLLIYRMSNLASGVPDRFSGSGSGTDFTLKISRVEAEDVGVYYCMQHIEYPFTFGQGTKLEIK", "values": [
      {"measurement": "EC50 (read off the curve) [A) BaF-human Mpl]", "setting": "[4]", "value": "~0.1", "unit": "nM"}
    ]},
    {"binder": "hVB22B u2-wz4 (v1) sc(Fv)2 (scFv) QVQLVQSGPEVKKPGASVKVSCKASGYTFTNSWMNWVRERPGKGLEWIGRIYPGDGETIYNGKFRVRVTITADESTSTAYMQLSSLRSEDTAVYYCARGYDDYSFAYWGQGTTVTVSSGGGGSGGGGSGGGGSDIVMTQSPLSLPVTPGEPASISCRSSKSLLHSNGNTYLYWFLEKPGQSPQLLIYRMSNLASGVPDRFSGSGSGTDFTLKISRVEAEDVGVYYCMQHIEYPFTFGQGTKLEIKGGGGSGGGGSGGGGSQVQLVQSGPEVKKPGASVKVSCKASGYTFTNSWMNWVRKRPGKGLEWIGRIYPGDGETIYNGKFRVRVTITADESTSTAYMQLSSLRSEDTAVYYCARGYDDYSFAYWGQGTTVTVSSGGGGSGGGGSGGGGSDIVMTQSPLSLPVTPGEPASISCRSSKSLLHSNGNTYLYWFLKKPGQSPQLLIYRMSNLASGVPDRFSGSGSGTDFTLKISRVEAEDVGVYYCMQHIEYPFTFGQGTKLEIK", "values": [
      {"measurement": "EC50 (read off the curve) [B) BaF-monkey Mpl]", "setting": "[3]", "value": "~0.04", "unit": "nM"},
      {"measurement": "EC50 (read off the curve) [A) BaF-human Mpl]", "setting": "[4]", "value": "~0.04", "unit": "nM"}
    ]},
    {"binder": "VB22B sc(Fv)2 peak 2 (single chain diabody-type conformational isomer) (scFv) QVQLQQSGPELVKPGASVKISCKASGYAFTNSWMNWVKQRPGKGLEWIGRIYPGDGETIYNGKFRVKATLTADKSSSTAYMDISSLTSEDSAVYFCARGYDDYSFAYWGQGTLVTVSAGGGGSGGGGSGGGGSDIVMTQAAPSIPVTPGESVSISCRSSKSLLHSNGNTYLYWFLQRPGQSPQLLIYRMSNLASGVPDRFSGSGSGTAFTLRISRVEAEDVGVYYCMQHIEYPFTFGSGTKLEIKGGGGSGGGGSGGGGSQVQLQQSGPELVKPGASVKISCKASGYAFTNSWMNWVKQRPGKGLEWIGRIYPGDGETIYNGKFRVKATLTADKSSSTAYMDISSLTSEDSAVYFCARGYDDYSFAYWGQGTLVTVSAGGGGSGGGGSGGGGSDIVMTQAAPSIPVTPGESVSISCRSSKSLLHSNGNTYLYWFLQRPGQSPQLLIYRMSNLASGVPDRFSGSGSGTAFTLRISRVEAEDVGVYYCMQHIEYPFTFGSGTKLEIK", "values": [
      {"measurement": "EC50 (read off the curve)", "setting": "[5]", "value": "~0.6", "unit": "ng/mL"},
      {"measurement": "EC50 (read off the curve) [B) BaF-monkey Mpl]", "setting": "[6]", "value": "~0.02", "unit": "nM"},
      {"measurement": "EC50 (read off the curve) [A) BaF-human Mpl]", "setting": "[7]", "value": "~0.008", "unit": "nM"}
    ]},
    {"binder": "mouse anti-human Mpl antibody mVB22B sc(Fv)2 (before separation of the conformational isomers) (scFv) QVQLQQSGPELVKPGASVKISCKASGYAFTNSWMNWVKQRPGKGLEWIGRIYPGDGETIYNGKFRVKATLTADKSSSTAYMDISSLTSEDSAVYFCARGYDDYSFAYWGQGTLVTVSAGGGGSGGGGSGGGGSDIVMTQAAPSIPVTPGESVSISCRSSKSLLHSNGNTYLYWFLQRPGQSPQLLIYRMSNLASGVPDRFSGSGSGTAFTLRISRVEAEDVGVYYCMQHIEYPFTFGSGTKLEIKGGGGSGGGGSGGGGSQVQLQQSGPELVKPGASVKISCKASGYAFTNSWMNWVKQRPGKGLEWIGRIYPGDGETIYNGKFRVKATLTADKSSSTAYMDISSLTSEDSAVYFCARGYDDYSFAYWGQGTLVTVSAGGGGSGGGGSGGGGSDIVMTQAAPSIPVTPGESVSISCRSSKSLLHSNGNTYLYWFLQRPGQSPQLLIYRMSNLASGVPDRFSGSGSGTAFTLRISRVEAEDVGVYYCMQHIEYPFTFGSGTKLEIK", "values": [
      {"measurement": "EC50 (read off the curve) [B) BaF-monkey Mpl]", "setting": "[6]", "value": "~0.03", "unit": "nM"},
      {"measurement": "EC50 (read off the curve) [A) BaF-human Mpl]", "setting": "[7]", "value": "~0.01", "unit": "nM"}
    ]}
  ]
}
